{
  "source": "paper PMC13544220",
  "about": "“Glycemic and bodyweight effects of GIPR coding variation reflect differences in surface expression and intrinsic functional impairment” (Science Advances, 2026);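 as to AD293 Surface: scaled to the experimental average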;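 as to Surface SNAP-GIPR expression: scaled to the experimental average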",
  "molecules": {"B1": {"name": "R131S (protein, UniProt P48546 22-466, looked up, variant R131S)", "Gastric inhibitory …": "RAETGSKGQTAGELYQRWERYRRECQETLAAAEPPSGLACNGSFDMYVCWDYAAPNATARASCPWYLPWHHHVAAGFVLRQCGSDGQWGLWRDHTQCENPEKNEAFLDQSLILERLQVMYTVGYSLSLATLLLALLILSLFRRLHCTRNYIHINLFTSFMLRAAAILSRDRLLPRPGPYLGDQALALWNQALAACRTAQIVTQYCVGANYTWLLVEGVYLHSLLVLVGGSEEGHFRYYLLLGWGAPALFVIPWVIVRYLYENTQCWERNEVKAIWWIIRTPILMTILINFLIFIRILGILLSKLRTRQMRCRDYRLRLARSTLTLVPLLGVHEVVFAPVTEEQARGALRFAKLGFEIFLSSFQGFLVSVLYCFINKEVQSEIRRGWHHCRLRRSLGEEQRQLPERAFRALPSGSGPGEVPTSRGLSSGTLPGPGNEASRELESYC"}},
  "assay_type_in_all_cases": "cell-based, human",
  "key": {"[1]": {"system": "wild-type and variant SNAP-GIPR", "assay": "Single-concentration GIP cAMP response by HTRF in INS-1 cells", "conditions": "Fig S3E, mean", "description": "(§1) All variants were tested in parallel on each occasion to control for transfection efficiency differences between experiments."}, "[2]": {"system": "wild-type and variant SNAP-GIPR", "assay": "Surface SNAP-GIPR expression (SNAP-tag labelling) in AD293 cells", "conditions": "for AD293 Surface: Fig S3E, mean; for Surface SNAP-GIPR expression: sheet Fig 1C", "description": "(§2) Twenty-four hours before the experiment, AD293 or INS-1 cells were reverse transfected with GIPR variant or wild-type plasmids using Lipofectamine 2000 in 96-well, clear-bottom, black microplates precoated with poly-D-lysine. All variants were tested in parallel on each occasion to control for transfection efficiency differences between experiments. Cells were then labeled using the cell-impermeant probe SNAP-Surface Alexa Fluor 647 (500 nM, New England Biolabs, USA) for 10 min at room temperature to label only surface GIPR. […] Several fields of view (FOVs) were acquired within each well using a 20X, 0.75–numerical aperture (NA) air objective. Surface GIPR fluorescence was quantified after flat-field correction using BaSiC ([72]) and segmenting using Phantast ([73]), which generates a mask based on the phase contrast images to demarcate cell versus noncell. Wide-field imaging of the surface-specific labeling achieved by SNAP-Surface probes means that surface expression can be established from whole-cell fluorescence, after subtracting nonspecific fluorescence from a separate well containing nontransfected cells processed in parallel from the same experiment. Data were normalized by dividing by the average specific signal across each experiment, or by the wild-type value, as indicated in the figure legends."}, "[3]": {"system": "wild-type and variant SNAP-GIPR", "assay": "Constitutive and agonist-mediated internalization, reversible SNAP-tag labelling, AD293 cells", "set-up": "key to Internalisation, Vehicle / Internalisation, +GIP / Internalisation, GIP-only: % internalization: residual fluorescence after Mesna vs pre-Mesna; Surface expression: unit not given here", "conditions": "Mean", "description": "(§3) Twenty-four hours before the experiment, AD293 or INS-1 cells were reverse transfected with GIPR variant or wild-type plasmids using Lipofectamine 2000 in 96-well, clear-bottom, black microplates precoated with poly-D-lysine. All variants were tested in parallel on each occasion to control for transfection efficiency differences between experiments. […] Media were then removed, cells washed with PBS and then placed in TNE buffer (pH 8.6) for imaging. […] After 10 min, the well was reimaged again to detect remaining fluorescence from internalized GIPR. Images were analyzed as in the “Assessment of surface GIPR expression by SNAP-tag labeling in cell lines” section, with the residual specific fluorescence after Mesna treatment expressed relative to the pre-Mesna value to establish percentage internalization."}, "[4]": {"system": "wild-type and variant SNAP-GIPR", "assay": "Single-concentration GIP cAMP response by HTRF in AD293 cells", "conditions": "Fig S3F, HTRF, mean", "description": "as §1"}, "[5]": {"system": "wild-type and variant SNAP-GIPR", "assay": "cADDis cAMP imaging in AD293 cells, ensemble, expression-matched and per decile", "conditions": "Fig S3F, cADDis, mean", "description": "AD293 cells were reverse transfected with the GIPR variant or wild-type plasmids using Lipofectamine 2000 and cotransduced with the cADDis Green Up BacMam (10 μl per well, Montana Molecular, USA), in 96-well, poly-D-lysine–coated microplates. All variants were tested in parallel on each occasion to control for transfection efficiency differences between experiments. After 24 hours, cells were labeled using 500 nM SNAP-Surface Alexa Fluor 647 for 10 min at room temperature. Cells were washed three times and then imaged in KRBH buffer containing 6 mM glucose and 0.1% BSA. Imaging was performed at 37°C by wide-field microscopy using the same microscope as in the “Assessment of surface GIPR expression by SNAP-tag labeling in cell lines” section, with 9 FOVs for both cADDis and SNAP-Surface fluorescence acquired from each well using a 10X, 0.45 NA air objective. […] Flat-field correction was performed using BaSiC ([72]), drift correction was performed using SIFT, and a maximum intensity projection of the cADDis channel was used to segment individual cells. cAMP responses were determined by quantifying the cADDis fluorescence intensity for each cell at each time point. Nonviable cells or noncell objects were excluded according to criteria for allowable cell IBMX/FSK responses. […] The cADDis mask was then used to quantify the SNAP-Surface signal from each cell. Wild-type SNAP-Surface readings were split into deciles, and these deciles were subsequently used to categorize variant-transfected cells to match against the wild type. After trimming the top and bottom deciles, the mean was taken of each decile mean for surface expression level or cAMP response, which achieved matched expression levels by effectively applying an inverse weighting to counteract differences in cell number in each decile for different variants. Ensemble expression levels or cAMP responses were calculated without regard to deciles. Variant cADDis responses were also analyzed within their own surface expression deciles."}, "[6]": {"system": "wild-type and variant SNAP-GIPR", "assay": "Surface SNAP-GIPR expression (SNAP-tag labelling) in INS-1 cells", "conditions": "Fig 4G; Mean", "description": "as §2"}, "[7]": {"system": "wild-type and variant SNAP-GIPR", "assay": "Constitutive and agonist-mediated internalization, reversible SNAP-tag labelling, INS-1 cells", "set-up": "key to Internalisation, GIP-only / Internalisation, Vehicle / Internalisation, +GIP: % internalization: residual fluorescence after Mesna vs pre-Mesna", "conditions": "Mean", "description": "as §3"}},
  "data": [
    {"molecule": "B1", "values": [
      {"measurement": "INS-1 cAMP (100 nM)", "setting": "[1]", "value": 1.548},
      {"measurement": "AD293 Surface", "setting": "[2]; column repeated, paired with cAMP 100 nM", "value": 1.362},
      {"measurement": "AD293 Surface", "setting": "[2]; paired with cAMP 100 pM", "value": 1.362},
      {"measurement": "Surface SNAP-GIPR expression", "setting": "[2]; replicate 1", "value": 0.7106},
      {"measurement": "Surface SNAP-GIPR expression", "setting": "[2]; replicate 2", "value": 2.058},
      {"measurement": "Surface SNAP-GIPR expression", "setting": "[2]; replicate 3", "value": 0.7777},
      {"measurement": "Surface SNAP-GIPR expression", "setting": "[2]; replicate 4", "value": 1.042},
      {"measurement": "Surface SNAP-GIPR expression", "setting": "[2]; replicate 5", "value": 1.12},
      {"measurement": "Surface SNAP-GIPR expression", "setting": "[2]; replicate 6", "value": 1.654},
      {"measurement": "Surface SNAP-GIPR expression", "setting": "[2]; replicate 7", "value": 1.227},
      {"measurement": "Surface SNAP-GIPR expression", "setting": "[2]; replicate 8", "value": 1.559},
      {"measurement": "Surface SNAP-GIPR expression", "setting": "[2]; replicate 9", "value": 1.551},
      {"measurement": "Surface SNAP-GIPR expression", "setting": "[2]; replicate 10", "value": 1.359},
      {"measurement": "Surface SNAP-GIPR expression", "setting": "[2]; replicate 11", "value": 1.194},
      {"measurement": "Surface SNAP-GIPR expression", "setting": "[2]; replicate 12", "value": 1.256},
      {"measurement": "Surface SNAP-GIPR expression", "setting": "[2]; replicate 13", "value": 1.318},
      {"measurement": "Surface SNAP-GIPR expression", "setting": "[2]; replicate 14", "value": 0.9106},
      {"measurement": "Surface SNAP-GIPR expression", "setting": "[2]; replicate 15", "value": 1.304},
      {"measurement": "Surface SNAP-GIPR expression", "setting": "[2]; replicate 16", "value": 1.372},
      {"measurement": "Surface SNAP-GIPR expression", "setting": "[2]; replicate 17", "value": 1.574},
      {"measurement": "Surface SNAP-GIPR expression", "setting": "[2]; replicate 18", "value": 1.448},
      {"measurement": "Surface SNAP-GIPR expression", "setting": "[2]; replicate 19", "value": 1.382},
      {"measurement": "Surface SNAP-GIPR expression", "setting": "[2]; replicate 20", "value": 1.357},
      {"measurement": "Surface SNAP-GIPR expression", "setting": "[2]; replicate 21", "value": 1.273},
      {"measurement": "Surface SNAP-GIPR expression", "setting": "[2]; replicate 22", "value": 1.627},
      {"measurement": "Surface SNAP-GIPR expression", "setting": "[2]; replicate 23", "value": 1.424},
      {"measurement": "Surface SNAP-GIPR expression", "setting": "[2]; replicate 24", "value": 1.463},
      {"measurement": "Surface SNAP-GIPR expression", "setting": "[2]; replicate 25", "value": 1.446},
      {"measurement": "Surface SNAP-GIPR expression", "setting": "[2]; replicate 26", "value": 1.405},
      {"measurement": "Surface SNAP-GIPR expression", "setting": "[2]; replicate 27", "value": 1.475},
      {"measurement": "Surface SNAP-GIPR expression", "setting": "[2]; replicate 28", "value": 1.453},
      {"measurement": "Surface SNAP-GIPR expression", "setting": "[2]; replicate 29", "value": 1.54},
      {"measurement": "Surface SNAP-GIPR expression", "setting": "[2]; replicate 30", "value": 1.363},
      {"measurement": "Surface SNAP-GIPR expression", "setting": "[2]; replicate 31", "value": 1.317},
      {"measurement": "Surface SNAP-GIPR expression", "setting": "[2]; replicate 32", "value": 1.55},
      {"measurement": "Surface SNAP-GIPR expression", "setting": "[2]; replicate 33", "value": 1.587},
      {"measurement": "Surface SNAP-GIPR expression", "setting": "[2]; replicate 34", "value": 1.477},
      {"measurement": "Surface SNAP-GIPR expression", "setting": "[2]; replicate 35", "value": 1.359},
      {"measurement": "Surface SNAP-GIPR expression", "setting": "[2]; replicate 36", "value": 1.207},
      {"measurement": "Surface SNAP-GIPR expression", "setting": "[2]; replicate 37", "value": 1.251},
      {"measurement": "Surface SNAP-GIPR expression", "setting": "[2]; replicate 38", "value": 1.505},
      {"measurement": "Surface SNAP-GIPR expression", "setting": "[2]; replicate 39", "value": 1.263},
      {"measurement": "Surface SNAP-GIPR expression", "setting": "[2]; replicate 40", "value": 1.363},
      {"measurement": "Surface SNAP-GIPR expression", "setting": "[2]; replicate 41", "value": 1.33},
      {"measurement": "+GIP internalisation (100 nM)", "setting": "[3]; Fig 4E, GIP 100 nM", "value": 0.7235},
      {"measurement": "GIP-specific internalisation (100 nM)", "setting": "[3]; Fig 4E, GIP 100 nM", "value": 0.2116},
      {"measurement": "Constitutive internalisation (100 nM)", "setting": "[3]; Fig 4E", "value": 0.5118},
      {"measurement": "Surface expression", "setting": "[3]; Fig 4E", "value": 1.308},
      {"measurement": "Internalisation, +GIP", "setting": "[3]; Fig S4C, AD293", "value": 55.4494},
      {"measurement": "Internalisation, GIP-only", "setting": "[3]; Fig S4C, AD293", "value": 16.1484},
      {"measurement": "Internalisation, Vehicle", "setting": "[3]; Fig S4C, AD293", "value": 39.3009},
      {"measurement": "AD293 100 pM HTRF", "setting": "[4]; AD293, 100 pM", "value": 0.4337},
      {"measurement": "AD293 100 nM HTRF", "setting": "[4]; AD293, 100 nM", "value": 1.306},
      {"measurement": "AD293 100 pM cADDis", "setting": "[5]; AD293, 100 pM", "value": 25.6916},
      {"measurement": "AD293 100 nM cADDis", "setting": "[5]; AD293, 100 nM", "value": 36.03},
      {"measurement": "Surface expression", "setting": "[6]", "value": 1.447},
      {"measurement": "+GIP internalisation (100 nM)", "setting": "[7]; Fig 4G, GIP 100 nM", "value": 0.7402},
      {"measurement": "GIP-specific internalisation (100 nM)", "setting": "[7]; Fig 4G, GIP 100 nM", "value": 0.1769},
      {"measurement": "Constitutive internalisation (100 nM)", "setting": "[7]; Fig 4G", "value": 0.5633},
      {"measurement": "Internalisation, +GIP", "setting": "[7]; Fig S4C, INS-1", "value": 45.9917},
      {"measurement": "Internalisation, GIP-only", "setting": "[7]; Fig S4C, INS-1", "value": 10.9733},
      {"measurement": "Internalisation, Vehicle", "setting": "[7]; Fig S4C, INS-1", "value": 35.0183}
    ]}
  ]
}
